Measurements from patent publication US20180186873A1 (CEPHALON, published 2018).
Changes are numbered by the printed parent chain. “And” between values parts separate entries of the source, which are not always exact repeats. Identical values can stand only once.

Legend:
recombinant human IL-5 [1] = molecular target: T1, recombinant human IL-5 (human, UniProt P05113 20-134); test: SPR, purified Ab on Protein A chip, IL-5 analyte, run 3.2
recombinant human IL-5 [2] = molecular target: T1, recombinant human IL-5; test: SPR, Ab supernatant on Protein A chip, IL-5 analyte, run 3.2, average of 5
recombinant human IL-5 [3] = molecular target: T2, recombinant human IL-5 (human, UniProt P05113 20-134); test: Biacore SPR run 5.1
recombinant human IL-5 [4] = molecular target: T2, recombinant human IL-5; test: Biacore SPR run 5.1; remark: listed apart in the source
recombinant human IL-5 [5] = molecular target: T2, recombinant human IL-5; test: Biacore SPR run 5.1; remark: listed apart in the source
recombinant human IL-5 [6] = molecular target: T3, recombinant human IL-5 (human, UniProt P05113 20-134); test: SPR Biacore, Ab on Protein A chip, human IL-5 analyte, run 4.1, replicate 5
recombinant human IL-5 [7] = molecular target: T3, recombinant human IL-5; test: SPR Biacore, purified Ab on Protein A chip, human IL-5 analyte, run 4.1
recombinant human IL-5 [8] = molecular target: T3, recombinant human IL-5; test: SPR Biacore, Ab on Protein A chip, human IL-5 analyte, run 4.1, replicate 2
recombinant human IL-5 [9] = molecular target: T3, recombinant human IL-5; test: SPR Biacore, Ab on Protein A chip, human IL-5 analyte, run 4.1, replicate 1
recombinant human IL-5 [10] = molecular target: T3, recombinant human IL-5; test: SPR Biacore, Ab on Protein A chip, human IL-5 analyte, run 4.1, replicate 3
recombinant human IL-5 [11] = molecular target: T3, recombinant human IL-5; test: SPR Biacore, Ab on Protein A chip, human IL-5 analyte, run 4.1, average
recombinant human IL-5 [12] = molecular target: T3, recombinant human IL-5; test: SPR Biacore, Ab on Protein A chip, human IL-5 analyte, run 4.1, replicate 4
recombinant human IL-5 [13] = molecular target: T4, recombinant human IL-5 (human, UniProt P05113 20-134); test: Biacore SPR, Ab supernatant on Protein A chip, average of replicates
recombinant human IL-5 [14] = molecular target: T4, recombinant human IL-5; test: Biacore SPR, purified Ab on Protein A chip
recombinant human IL-5 [15] = molecular target: T4, recombinant human IL-5; test: Biacore SPR, Ab supernatant on Protein A chip
recombinant human IL-5 [16] = molecular target: T5, recombinant human IL-5 (human, UniProt P05113 20-134); test: SPR
recombinant human IL-5 [17] = molecular target: T5, recombinant human IL-5; test: SPR; remark: listed apart in the source
recombinant human IL-5 [18] = molecular target: T5, recombinant human IL-5; test: SPR; remark: listed apart in the source
recombinant human IL-5 [19] = molecular target: T5, recombinant human IL-5; test: SPR; remark: listed apart in the source
recombinant human IL-5 [20] = molecular target: T5, recombinant human IL-5; test: SPR; remark: listed apart in the source
recombinant human IL-5 [21] = molecular target: T5, recombinant human IL-5; test: SPR; remark: listed apart in the source
recombinant human IL-5 [22] = molecular target: T5, recombinant human IL-5; test: SPR; remark: listed apart in the source

B1: 3A5.040 (antibody, human IgG4 S228P, lambda)
heavy: not shown
light: SYVLTQPPSVSVAPGQTARITCGGNNIGSKNVYWYQQKPGQAPVLVVHDDSDRPSGIPERFSGSNSGNTATLTISRVEVGDEADYSCQVWDSSSDHVVFGGGTKLTVLGQPKAAPSVTLFPPSSEELQANKATLVCLISDFYPGAVTVAWKADSSPVKAGVETTTPSKQSNNKYAASSYLSLTPEQWKSHRSYSCQVTHEGSTVEKTVAPTECS
B1 showed a Kd (recombinant human IL-5 [1]) of 0.116 nM, a koff (recombinant human IL-5 [1]) of 8.25e-05 s⁻¹ and a kon (recombinant human IL-5 [1]) of 712000 M⁻¹ s⁻¹. It also gave a Kd (recombinant human IL-5 [2]) of 0.131 nM, a koff (recombinant human IL-5 [2]) of 9.07e-05 s⁻¹ and a kon (recombinant human IL-5 [2]) of 695000 M⁻¹ s⁻¹.

B2: 3A5.040 (antibody, human IgG4 S228P, lambda)
heavy: not shown
light: B1 light
B2 showed a Kd (recombinant human IL-5 [3]) of 0.181 nM, a koff (recombinant human IL-5 [3]) of 0.000119 s⁻¹ and a kon (recombinant human IL-5 [3]) of 657000 M⁻¹ s⁻¹. It also gave a Kd (recombinant human IL-5 [4]) of 0.153 nM, a koff (recombinant human IL-5 [4]) of 0.000108 s⁻¹ and a kon (recombinant human IL-5 [4]) of 707000 M⁻¹ s⁻¹. For the same binder, the Kd (recombinant human IL-5 [5]) was 0.186 nM and 0.175 nM and 0.187 nM and 0.177 nM, the koff (recombinant human IL-5 [5]) was 0.000122 s⁻¹ and 0.000112 s⁻¹ and 0.000125 s⁻¹ and 0.000117 s⁻¹ and the kon (recombinant human IL-5 [5]) was 656000 M⁻¹ s⁻¹ and 643000 M⁻¹ s⁻¹ and 667000 M⁻¹ s⁻¹ and 663000 M⁻¹ s⁻¹.

B3: 3A5.040 (antibody, human IgG4 S228P, lambda)
heavy: not shown
light: B1 light
With B3 the Kd (recombinant human IL-5 [6]) was 0.0937 nM, the koff (recombinant human IL-5 [6]) was 9.29e-05 s⁻¹ and the kon (recombinant human IL-5 [6]) was 991000 M⁻¹ s⁻¹. The Kd (recombinant human IL-5 [7]) was 0.103 nM, the koff (recombinant human IL-5 [7]) was 0.000109 s⁻¹ and the kon (recombinant human IL-5 [7]) was 1.06e+06 M⁻¹ s⁻¹. The Kd (recombinant human IL-5 [8]) was 0.104 nM, the koff (recombinant human IL-5 [8]) was 0.000107 s⁻¹ and the kon (recombinant human IL-5 [8]) was 1.02e+06 M⁻¹ s⁻¹. The Kd (recombinant human IL-5 [9]) was 0.116 nM, the koff (recombinant human IL-5 [9]) was 0.000116 s⁻¹ and the kon (recombinant human IL-5 [9]) was 1e+06 M⁻¹ s⁻¹. It also gave a Kd (recombinant human IL-5 [10]) of 0.109 nM, a koff (recombinant human IL-5 [10]) of 0.000112 s⁻¹ and a kon (recombinant human IL-5 [10]) of 1.03e+06 M⁻¹ s⁻¹. For the same binder, the Kd (recombinant human IL-5 [11]) was 0.106 nM, the koff (recombinant human IL-5 [11]) was 0.000107 s⁻¹ and the kon (recombinant human IL-5 [11]) was 1.01e+06 M⁻¹ s⁻¹. The Kd (recombinant human IL-5 [12]) was 0.105 nM, the koff (recombinant human IL-5 [12]) was 0.000106 s⁻¹ and the kon (recombinant human IL-5 [12]) was 1.01e+06 M⁻¹ s⁻¹.

B4: 3A5.040 (antibody, human IgG4 S228P, lambda)
heavy: not shown
light: B1 light
B4 showed a Kd (recombinant human IL-5 [13]) of 0.149 nM, a koff (recombinant human IL-5 [13]) of 0.000105 s⁻¹ and a kon (recombinant human IL-5 [13]) of 703000 M⁻¹ s⁻¹. It also gave a Kd (recombinant human IL-5 [14]) of 0.092 nM, a koff (recombinant human IL-5 [14]) of 6.63e-05 s⁻¹ and a kon (recombinant human IL-5 [14]) of 721000 M⁻¹ s⁻¹. For the same binder, the Kd (recombinant human IL-5 [15]) was 0.148 nM and 0.149 nM, the koff (recombinant human IL-5 [15]) was 0.000103 s⁻¹ and 0.000106 s⁻¹ and the kon (recombinant human IL-5 [15]) was 696000 M⁻¹ s⁻¹ and 710000 M⁻¹ s⁻¹.

B5: 3A5.040 (antibody, human IgG4 S228P, lambda)
heavy: not shown
light: B1 light
B5 was tested, and the Kd (recombinant human IL-5 [16]) was 0.16 nM, the koff (recombinant human IL-5 [16]) was 0.000115 s⁻¹ and the kon (recombinant human IL-5 [16]) was 720000 M⁻¹ s⁻¹. It also gave a Kd (recombinant human IL-5 [17]) of 0.128 nM, a koff (recombinant human IL-5 [17]) of 9.21e-05 s⁻¹ and a kon (recombinant human IL-5 [17]) of 718000 M⁻¹ s⁻¹. The Kd (recombinant human IL-5 [18]) was 0.139 nM, the koff (recombinant human IL-5 [18]) was 9.91e-05 s⁻¹ and the kon (recombinant human IL-5 [18]) was 715000 M⁻¹ s⁻¹. For the same binder, the Kd (recombinant human IL-5 [19]) was 0.143 nM, the koff (recombinant human IL-5 [19]) was 9.95e-05 s⁻¹ and the kon (recombinant human IL-5 [19]) was 696000 M⁻¹ s⁻¹. The Kd (recombinant human IL-5 [20]) was 0.123 nM, the koff (recombinant human IL-5 [20]) was 8.96e-05 s⁻¹ and the kon (recombinant human IL-5 [20]) was 727000 M⁻¹ s⁻¹. It also gave a Kd (recombinant human IL-5 [21]) of 0.148 nM, a koff (recombinant human IL-5 [21]) of 0.000106 s⁻¹ and a kon (recombinant human IL-5 [21]) of 717000 M⁻¹ s⁻¹.

B6: 3A5.485 (antibody, human IgG4 S228P, lambda, name in Kabat numbering, V domains shown)
VH: QVQLQESGPGLVKPSQTLSLTCTVSGGSISNGGYYWSWIRQHPGKGLEWIGYIYYSGSTYYNPSLKSRVTISVDTSKNQFSLKLSSVTAADTAVYYCQSLGNWFDYWGQGTLVTVSS
VL: SYVLTQPPSVSVAPGQTARITCGGNNIGSKNVYWYQQKPGQAPVLVVHDDSDRPSGIPERFSGSNSGNTATLTISRVEVGDEADYSCQVWDSSSDHVVFGGGTKLTVLG
For B6, the “% 3A5.040 kd” value (recombinant human IL-5 [15]) was 105% and the Kd (recombinant human IL-5 [15]) was 0.154 nM.

B7: 3A5.492 (antibody, human IgG4 S228P, lambda, name in Kabat numbering, V domains shown)
VH: B6 VH with Q98A, S99Y
VL: B6 VL
With B7 the “% 3A5.040 kd” value (recombinant human IL-5 [15]) was 10% and the Kd (recombinant human IL-5 [15]) was 3.37 nM.

B8: 3A5.498 (antibody, human IgG4 S228P, lambda, name in Kabat numbering, V domains shown)
VH: B6 VH with Q98A, S99P
VL: B6 VL
For B8, the “% 3A5.040 kd” value (recombinant human IL-5 [22]) was 85% and the Kd (recombinant human IL-5 [22]) was 0.263 nM.

B9: 3A5.491 (antibody, human IgG4 S228P, lambda, name in Kabat numbering, V domains shown)
VH: B6 VH with Q98A, S99L
VL: B6 VL
With B9 the “% 3A5.040 kd” value (recombinant human IL-5 [15]) was 13% and the Kd (recombinant human IL-5 [15]) was 1.52 nM.

B10: 3A5.495 (antibody, human IgG4 S228P, lambda, name in Kabat numbering, V domains shown)
VH: B6 VH with Q98A, S99K
VL: B6 VL
B10 was tested, and the “% 3A5.040 kd” value (recombinant human IL-5 [22]) was 34% and the Kd (recombinant human IL-5 [22]) was 0.431 nM.

B11: 3A5.497 (antibody, human IgG4 S228P, lambda, name in Kabat numbering, V domains shown)
VH: B6 VH with Q98A, S99W
VL: B6 VL
In the case of B11, the “% 3A5.040 kd” value (recombinant human IL-5 [22]) is reported as 3% and the Kd (recombinant human IL-5 [22]) is reported as 1.75 nM.

B12: 3A5.494 (antibody, human IgG4 S228P, lambda, name in Kabat numbering, V domains shown)
VH: B6 VH with Q98A, S99Q
VL: B6 VL
B12 was tested, and the “% 3A5.040 kd” value (recombinant human IL-5 [15]) was 16% and the Kd (recombinant human IL-5 [15]) was 0.945 nM.

B13: 3A5.482 (antibody, human IgG4 S228P, lambda, name in Kabat numbering, V domains shown)
VH: B6 VH with Q98L
VL: B6 VL
With B13 the “% 3A5.040 kd” value (recombinant human IL-5 [15]) was 52% and the Kd (recombinant human IL-5 [15]) was 0.79 nM.

B14: 3A5.490 (antibody, human IgG4 S228P, lambda, name in Kabat numbering, V domains shown)
VH: B6 VH with Q98A, S99A
VL: B6 VL
B14 showed a Kd (recombinant human IL-5 [15]) of 0.128 nM.

B15: 3A5.481 (antibody, human IgG4 S228P, lambda, name in Kabat numbering, V domains shown)
VH: B6 VH with Q98S
VL: B6 VL
For B15, the “% 3A5.040 kd” value (recombinant human IL-5 [15]) was 112% and the Kd (recombinant human IL-5 [15]) was 0.13 nM.

B16: 3A5.496 (antibody, human IgG4 S228P, lambda, name in Kabat numbering, V domains shown)
VH: B6 VH with Q98A, S99H
VL: B6 VL
In the case of B16, the “% 3A5.040 kd” value (recombinant human IL-5 [15]) is reported as 2% and the Kd (recombinant human IL-5 [15]) is reported as 2.11 nM.
